Reference: patent US20260035452A1 (THE UNIVERSITY OF BIRMINGHAM, priority 2022, published 2026)

Tests used:
neutrophils = test: Transwell chemotaxis assay; format: cell-based, human
Procedure: The cells migration after IL-17 (10-500 ng/ml), FM-0410 (10-500 ng/ml) or N-Formylmethionine-leucyl-phenylalanine (fmlp; 10^−6 M) treatment was quantified using CountBright™ Absolute Counting Beads. Data were presented as means±S.D. of n=3 healthy donors. Statistical analysis was conducted by one-way ANOVA followed by Bonferroni's for multiple comparisons. ^#P≤0.05, ^##P≤0.01, ^###P≤0.001, ^####P≤0.0001 vs Ctrl group; ^+P≤0.05 vs IL-17. Neutrophil isolation: Blood was taken according to local research ethics committee approval (QMERC2014/61). Informed consent was provided according to the Declaration of Helsinki. All blood samples were collected on the day of experiments from healthy donors and immediately used. Each condition has 3 biological replicates (3 different donors). Neutrophils were isolated using a double density histopaque gradient and hypotonic lysis as described previously. Transwell chemotaxis assay: Chemotaxis was assessed using a transwell assay. […] After 2 hours at 37° C., neutrophils were collected from the bottom wells and quantified by flow cytometry using CountBright™ Absolute Counting Beads (Thermofisher, Rugby, UK) as previously described.

[1] = test system: Human dermal blood endothelial cells (HDBEC); test: HDBEC stimulation (flow cytometry, IL-6 Elisa); format: cell-based; conditions: 100 ng/ml in combination with TNF-α (100 U/ml), 24 h
Procedure: FIG. 10: Human dermal blood endothelial cells (HDBEC) were treated with: IL-17 vehicle (Ctrl), IL-17 or FM-0410 (100 ng/ml), alone or in combination with TNF-α (100 U/ml) for 24 h. Cells were washed, gated in their totality and singlet before the identification of IL-17Rs (RA and RC) (A, B), ICAM (C) and VCAM (D) expression. Histogram values (expressed as MIF) indicate the total positive cells (A-D). In (E) are shown phase-contrast micrographs of confluent monolayers of untreated or treated (as reported before) HDBEC. Total adhesion (expressed as INT/mm^2, F) and % of transmigration (G) are calculated with Image Pro programme (DataCell, Finchampstead). Inflammatory supernatants from all experimental conditions were assayed by Elisa for IL-6 (H) expressed in pg/ml. Data were presented as means±S.D. of n=3 healthy donors. Statistical analysis was conducted by one-way ANOVA followed by Bonferroni's for multiple comparisons. ^#P≤0.05, ^##P≤0.01, ^###P≤0.001, ^####P≤0.0001 vs Ctrl group; *P≤0.05 vs TNF-α+IL-17 group; ^∘P≤0.05, ^∘∘∘P≤0.001, ^∘∘∘∘P≤0.0001 vs TNF-α group.
Human dermal blood endothelial cells (HDBEC): Primary human dermal blood endothelial cells (HDBECs) were purchased from PromoCell and cultured in the manufacturer's recommended endothelial cell growth medium MV (PromoCell, Heidelberg, Germany). HDBECs were seeded onto 12-well tissue culture plates after 4 passages at a seeding density yielding confluent monolayers. HDBEC monolayers were washed in endothelial cell growth medium MV warmed to 37° C. and stimulated with IL-17 or FM-0410 (100 ng/ml) alone or in a combination with TNF-α (100 U/ml) for 24 h at 37° C. Cells were stimulated for 24 h, before staining with IL-17Rs (RA or RC) or ICAM/VCAM adhesion receptors using a Flow cytometry assay. Supernatants were collected and measured to evaluate IL-6 or TNF-α levels.
Flow Cytometry: HDBEC, collected after 24 h of treatment, were washed with PBS without Ca^2+ and Mg^2+ containing 25 mM lactose for 20 min at room temperature with occasional mixing. […] Protein expression was analysed by flow cytometry on a Dako CyAn (Beckman Coulter, High Wycombe, U.K.), and data were analysed using MRFIow and FlowJo software operation. The unspecific binding of antibodies was quantified by using corresponding isotype controls.
Elisa assay: The levels of IL-6 at 24 h were measured using commercially available enzyme-linked immunosorbent assay kits (ELISA kit, R&D System, Milan, Italy) according to the manufacturer's instructions. […] The addition of 100 μl of the substrate and stop solution represented the last steps before the reading of absorbance (measured at 450 nm) on a microplate reader. Antigen levels in the samples were determined using a standard curve and expressed as pg/ml.

B1: IL-17: recombinant mouse IL-17 purchased from R&D System; full-length cytokine used as comparator and stimulus (protein, UniProt Q62386 26-158, looked up)
Interleukin-17A: AAIIPQSSACPNTEAKDFLQNVKVNLKVFNSLGAKVSSRRPSDYLNRSTSPWTLHRNEDPDRYPSVIWEAQCRHQRCVNAEGKLDHHMNSVLIQQEILVLKREPESCPFTFRVEKMLVGVGCTCVASIVRQAA
In the case of B1, the “chemotactic activity compared to positive control fmlp (10^−6 M)” value (neutrophils; 500 ng/ml) is reported as “almost similar to positive control fmlp”, the “chemotactic effect on neutrophils” value (neutrophils; 10-500 ng/ml, vs Control group) is reported as “concentration-dependent chemotactic effect” and the ICAM expression [1] is reported as “upregulation”. The IL-17RA receptor expression [1] was “No effects”, the IL-17RC receptor expression [1] was “No effects” and the VCAM expression [1] was “upregulation”.
